Results from publication PMC6510727.
Several values for one entry are separate records, joined by “and”; a condition that tells them apart may be missing. Equal values may be shown once.

What was measured:
[1] = biological target: PDE catalytic subunit (PDEα or PDEβ) of frog rod PDE (frog (Rana catesbeiana)); assay: PDE activity on dilution (pH assay), fitted with equation (s5); purified PDE at diluted low concentrations (≤40 nM), in the light without GTP, 5 mM cGMP, room temperature; relative to trypsin-treated full activity
[2] = biological target: PDE catalytic subunit (PDEα or PDEβ) of frog rod PDE (frog (Rana catesbeiana)); assay: PDE activity on dilution (pH assay), fitted with equation (s5); frog ROS membranes at various concentrations of PDE (≤40 nM; PDE/rhodopsin taken as 1/270), in the light without GTP, 5 mM cGMP, room temperature
[3] = biological target: PDE catalytic subunit (PDEα or PDEβ) of frog rod PDE (frog (Rana catesbeiana)); assay: co-purification (Mono Q, Superdex 200) with SDS-PAGE quantification; native PDE purified from frog ROS membranes to almost 100% purity; subunits quantified on Oriole-stained gels with bovine serum albumin as molar standard

Kd [1]: 0.01 nM and 0.005 to 0.02 nM
Kd [2]: 0.04 to 0.06 nM and 0.054 nM
molar ratio of 2PDEγ/PDEαβ [3]: 1.01
Substance: native PDEγ of frog rod PDE (freed reversibly from the catalytic subunit) (from UniProt H1AAN5 1-87) (natural protein)
